Test in all cases: fluorescence anisotropy; FA: 20 mM HEPES-NaOH pH 7.5, 100 mM NaCl, 10% glycerol, 20 C, 10 nM FAM-RNA; competition: 150 nM Egl512-819 + 10 nM FAM-K10 TLS, same buffer
Common to all, as to settings: protein: recombinant; tags: N-terminal GST; label: 5'-6-FAM; hairpin with two bulges

For one data set, the target named is T1, EXO-L (Egl512-770) (Drosophila melanogaster, UniProt Q9W1K4 512-770).
T1 sequence: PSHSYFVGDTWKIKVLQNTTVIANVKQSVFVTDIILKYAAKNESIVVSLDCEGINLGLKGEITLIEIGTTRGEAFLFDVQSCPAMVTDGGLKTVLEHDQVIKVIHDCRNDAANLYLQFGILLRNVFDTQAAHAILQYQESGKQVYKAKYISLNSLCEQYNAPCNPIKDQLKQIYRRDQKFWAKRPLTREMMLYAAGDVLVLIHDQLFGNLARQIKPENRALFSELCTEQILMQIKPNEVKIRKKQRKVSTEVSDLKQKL

The target in a further data set is T2, K758A (Drosophila melanogaster, UniProt Q9W1K4 512-819, K758A).
T2 sequence: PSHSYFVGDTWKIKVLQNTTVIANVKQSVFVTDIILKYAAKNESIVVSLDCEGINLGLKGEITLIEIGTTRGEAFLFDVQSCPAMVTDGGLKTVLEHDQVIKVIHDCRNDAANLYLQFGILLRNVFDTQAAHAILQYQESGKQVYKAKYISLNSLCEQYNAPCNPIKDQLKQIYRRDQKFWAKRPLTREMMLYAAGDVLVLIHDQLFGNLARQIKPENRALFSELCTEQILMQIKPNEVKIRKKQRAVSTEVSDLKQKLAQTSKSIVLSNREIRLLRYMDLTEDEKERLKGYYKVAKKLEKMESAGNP

A further data set addresses T3, K678E (Drosophila melanogaster, UniProt Q9W1K4 512-819, K678E).
T3 sequence: T2 sequence with K167E, A247K

Another data set deals with T4, L-Triple (Drosophila melanogaster, UniProt Q9W1K4 512-819, R753E;K754E;K755E).
T4 sequence: T2 sequence with R242E, K243E, K244E, A247K

The next data set deals with T5, K754A (Drosophila melanogaster, UniProt Q9W1K4 512-819, K754A).
T5 sequence: T2 sequence with K243A, A247K

Another data set addresses T6, D617A/R619A/N620A (Drosophila melanogaster, UniProt Q9W1K4 512-819, D617A;R619A;N620A).
T6 sequence: T2 sequence with D106A, R108A, N109A, A247K

This is an account of results in article doi:10.1101/2025.08.03.668247, “The structure of Egalitarian in complex with the K10 mRNA localization signal reveals a modular binding surface required for function”.

As a reminder, the Kd is the constant that tells how readily two partners part at equilibrium.

Where a chain is given by its changes, count along the chain named.

Take CUUGAUUGUAUUUUUAAAUUAAUUCUUAAAAACUACAAAUUAAG (structured_RNA) [K10 TLS (FAM)]: the Kd with EXO-L (Egl512-770) is 807 ± 104 nM; in the data set with K758A, 319 ± 19 nM; with K678E, 195 ± 9 nM; with L-Triple it was 1460 ± 302 nM; with K754A it was 212 ± 8 nM; with D617A/R619A/N620A it was 273 ± 12 nM.
